Reference: the nanobody polyreactivity screen of Harvey et al. (2022)

Assay: yeast display, Sf9 membrane polyspecificity reagent, FACS + sequencing; frameworks hold sequencing errors
In short: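 A synthetic nanobody library was expressed on Saccharomyces cerevisiae BJ5465 by galactose induction for 36–48 hours. The library was stained for 1 hour at 4 °C with 10% biotinylated, detergent-solubilized Sf9 membrane reagent and enriched with streptavidin microbeads before FACS. Low and high (top ~1%) gates were set on anti-HA fluorescence for expression and streptavidin fluorescence for reagent binding, and each polyreactivity label reflects the gate of origin.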

| Sequence | polyreactivity (PSR sort gate) |
| --- | --- |
| QVQLVESGGGLVQAGGSLRLSCAASGRTFYVYAMGWYRQAPGNERELVATISRSGGGTYYADSVKGRFTISRDNAKNTVYLQMNSLTPEDTAVYYCAAKPYRRDYGYWGQGTQVTVSS | high polyreactivity |
| QVQLVESGGGLVQAGGSLRLSCAASGRTFYVYNMGCYRQAPGKERELVAGISYSGGSTYYADSVKGRFTISRDNAKNTVYLQMNSLKPEDTAVYYSNAELYFPYFDGKTRLGGYWGLGTQVTVSS | low polyreactivity |
| QVQLVESGGGLVQAGGSLRLSCAASGRTFYWNAMGWYRQAPGKERELVAAISDGGGSTYYADSVKGRFTISRDNAKNTVYLHMNSLKPEDTAVYYCNTPDNQDKPYPGYDYWGQGTQVTVSS | low polyreactivity |
| QVQLVESGGGLVQAGGSLRLSCAASGRTFYWNAMGWYRQAPGKERELVASINGGGSTYYADSVKGRFTISRDNAKNTVYLQMNSLKPEDTAVYYCNVRYYFPRYQQRYQLNEYYYWGQGTQVTVSS | low polyreactivity |
| QVQLVESGGGLVQAGGSLRLSCAASGRTFYYNAMGWYRQAPGKERELVAAISYRGGSTYYADSVKGRFTISRDNAKNTVYLQMNSLKPEDTAVYYCAKYPHPLKYPGYPSEFDYWGQGTQVTVSS | low polyreactivity |
| QVQLVESGGGLVQAGGSLRLSCAASGRTFYYNAMGWYRQAPGKERELVAAITYSGGSTYYADSVKGRFTISRDNAKNTVYLQMNSLKPEDTAVYYCAADVYRPAGNWEHYYWGQGNQVTVSS | low polyreactivity |
| QVQLVESGGGLVQAGGSLRLSCAASGRTFYYNAMGWYRQAPGKERELVATITSGGSTNYADSVKGRFTISRDYAKNTVYLQMNSLKPEDTAVDYCATTRYRTYADVNSRYGYWGQGTQVTVSS | low polyreactivity |
| QVQLVESGGGLVQAGGSLRLSCAASGRTFYYNGMGWYRQAPGKERELVATITNGGSTNYADSVKGRFTISRDNAKNTVYLQMNSLKPEDTAVYYCAKTLASDCYDYWGQGTQVTVSS | low polyreactivity |
| QVQLVESGGGLVQAGGSLRLSCAASGRTFYYYAKGWYRQAPGKERELVARISRCGSTNYADSVKGRFTISRDNAKNTVYLQMISLKPEDSAVYYCAAGWRGGRYRYFAYDYWGQGTQVTVSS | high polyreactivity |
| QVQLVESGGGLVQAGGSLRLSCAASGRTFYYYAMGGYRQAPGKERELVAAIRGGGGSTYADSVKGRFTISRDNAKNTVYLQMNSLKPEDTAVYYCNVVRTGRYPGFLTFDYWGQGTQVTVSS | high polyreactivity |
| QVQLVESGGGLVQAGGSLRLSCAASGRTFYYYAMGWHRQAPGKERELVARIRSGGSTNYADSVKGRFTISRDNAKNTVYLQMNSLKPEDTAVYYCAAVRPPTPSRRREDYWGQGTQVTVSS | low polyreactivity |
| QVQLVESGGGLVQAGGSLRLSCAASGRTFYYYAMGWYRQAPGKEREFVAAIRFSGGNTYYADSVKGRFTISRDNAKNTVYLQMNSLKPEDTAVYYCAARRLLYKYWTGGPYDYWGQGTQVTVSS | high polyreactivity |
| QVQLVESGGGLVQAGGSLRLSCAASGRTFYYYAMGWYRQAPGKERELVAAIRWSTGSTYYADSVKGRFTISRDNAKNTVYLQMNSLKPEDTAVYYCAADTWYIQWGYYWGQGTQVTVSS | low polyreactivity |
| QVQLVESGGGLVQAGGSLRLSCAASGRTFYYYAMGWYRQAPGKERELVAAISSSTGRTYYADSVKGRFTISRDNAKNTVYLQMNSLKPEDTAVYYCAKYRVFGYQFDYWGQGTQVTVSS | high polyreactivity |
| QVQLVESGGGLVQAGGSLRLSCAASGRTFYYYAMGWYRQAPGKERELVAAITSTGGSTYYADSVKGRFTISRDNAKNTVYLQMNSLKPDDTAVYYCAADQVWGYDSWGQGPQVTVSS | low polyreactivity |
| QVQLVESGGGLVQAGGSLRLSCAASGRTFYYYAMGWYRQAPGKERELVASITSGDGTYYADSVKGRFTISRDNAKNTVYLQMNSLKPEDTAVYYCAADIFYKFSYYPWYPYRDYYYSGQGTQVTVSS | low polyreactivity |
| QVQLVESGGGLVQAGGSLRLSCAASGRTFYYYAMGWYRQEPGKERELVAAISWSGGRTYYADSVKGRFTISRDNAKNTVYLQMNSLNPEDTAVYYCNAEPPRGYTVSSGGEMDYWGQGTQVTVSS | low polyreactivity |
